# Substitutions are numbered along the chain they refer to.
# T1: V-Set And Immunoglobulin Domain Containing 4 (VSIG4) (human, UniProt Q9Y279 20-283, limits assumed)
# T1 construct: also called CRIg; Z39Ig
# T1 sequence (looked up): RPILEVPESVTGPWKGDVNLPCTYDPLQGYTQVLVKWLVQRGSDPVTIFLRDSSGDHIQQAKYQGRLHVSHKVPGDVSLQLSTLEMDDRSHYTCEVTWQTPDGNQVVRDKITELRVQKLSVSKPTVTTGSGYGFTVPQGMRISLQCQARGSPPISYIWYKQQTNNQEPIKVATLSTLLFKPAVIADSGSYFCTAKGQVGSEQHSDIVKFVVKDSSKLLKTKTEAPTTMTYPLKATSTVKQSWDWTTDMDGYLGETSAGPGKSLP
# B1: A1 antibody (EU103_T01.01) (antibody, V domains shown)
# VH: QVTLKESGPTLVKPTQTLTLTCTFSGISLTTSGMGVGWIRQPPGKALEWLADIFWDDNKYYNPSLKSRLTITKDTSKNQVVLTMTNMDPVDTATYYCVRVYYKNDGYFDVWGKGTTVTVSS
# VL: DIVLTQSPLSLPVTLGQPASISCRASKSVTTSGYSFMHWYQQRPGQSPRLLIYLASNLEPGVPDRFSGSGSGTDFTLKISRVEAEDVGVYYCQQSGELPYTFGQGTKLEIK
# B2: A1.3 antibody (EU103_T01.01S) (antibody, V domains shown)
# VH: B1 VH with K5V, T15G, S67G, V81Y
# VL: B1 VL
# notes: Generated from A1
# B3: A2 antibody (EU103_T01.02) (antibody, V domains shown)
# VH: B1 VH
# VL: B1 VL with S80F
# B4: A2.3 antibody (EU103_T01.02S) (antibody, V domains shown)
# VH: B1 VH with K5V, T15G, S67G, V81Y
# VL: B1 VL with S80F
# notes: Generated from A2
# B5: EU103.2 antibody (antibody, V domains shown)
# VH: QVQLQESGPGLVKPSQTLSLTCSFSGISLTTSGMGVGWIRQPPGKGLEWLADIFWDDNKYYNPSLKSRVTISVDTSKNQFSLKLSSVTAADTAVYYCVRVYYKNDGYFDVWGQGTLVTVSS
# VL: EIVMTQSPATLSVSPGERATLSCRASKSVTTSGYSFMHWYQQKPGQAPRLLIYLASNLEPGIPARFSGSGSGTEFTLTISSLQSEDFAVYYCQHSRELPYTFGQGTKLEIK
# notes: also called humanized anti-VSIG4 antibody generated from mouse anti-VSIG4 antibody mu6H8
# Columns and labels:
# [1] = biological target: T1, V-Set And Immunoglobulin Domain …; test: kinetic affinity measurement; method not stated
# [2] = biological target: T1, V-Set And Immunoglobulin Domain …; test: kinetic affinity measurement; method not stated at the table (SPR named for EU103.2 in FIG. 4B)
Binder,Kd [1] [nM],koff [1] [s⁻¹],kon [1] [M⁻¹ s⁻¹],Kd [2] [nM],koff [2] [s⁻¹],kon [2] [M⁻¹ s⁻¹]
B1,8.69,0.00328,378000,–,–,–
B2,7.95,0.0032,402000,–,–,–
B3,8.23,0.00296,360000,–,–,–
B4,7.64,0.00308,404000,–,–,–
B5,–,–,–,71.6,0.0131,183000

# From patent US20200291126A1 (EUTILEX, published 2020)
